Target: HA-tagged full-size GAM (GAM/ZFp/ZNF512B) (human) (UniProt Q96KM6)
Assay: co-IP

Chain of UniProt Q96KM6 (Q96KM6 whole entry): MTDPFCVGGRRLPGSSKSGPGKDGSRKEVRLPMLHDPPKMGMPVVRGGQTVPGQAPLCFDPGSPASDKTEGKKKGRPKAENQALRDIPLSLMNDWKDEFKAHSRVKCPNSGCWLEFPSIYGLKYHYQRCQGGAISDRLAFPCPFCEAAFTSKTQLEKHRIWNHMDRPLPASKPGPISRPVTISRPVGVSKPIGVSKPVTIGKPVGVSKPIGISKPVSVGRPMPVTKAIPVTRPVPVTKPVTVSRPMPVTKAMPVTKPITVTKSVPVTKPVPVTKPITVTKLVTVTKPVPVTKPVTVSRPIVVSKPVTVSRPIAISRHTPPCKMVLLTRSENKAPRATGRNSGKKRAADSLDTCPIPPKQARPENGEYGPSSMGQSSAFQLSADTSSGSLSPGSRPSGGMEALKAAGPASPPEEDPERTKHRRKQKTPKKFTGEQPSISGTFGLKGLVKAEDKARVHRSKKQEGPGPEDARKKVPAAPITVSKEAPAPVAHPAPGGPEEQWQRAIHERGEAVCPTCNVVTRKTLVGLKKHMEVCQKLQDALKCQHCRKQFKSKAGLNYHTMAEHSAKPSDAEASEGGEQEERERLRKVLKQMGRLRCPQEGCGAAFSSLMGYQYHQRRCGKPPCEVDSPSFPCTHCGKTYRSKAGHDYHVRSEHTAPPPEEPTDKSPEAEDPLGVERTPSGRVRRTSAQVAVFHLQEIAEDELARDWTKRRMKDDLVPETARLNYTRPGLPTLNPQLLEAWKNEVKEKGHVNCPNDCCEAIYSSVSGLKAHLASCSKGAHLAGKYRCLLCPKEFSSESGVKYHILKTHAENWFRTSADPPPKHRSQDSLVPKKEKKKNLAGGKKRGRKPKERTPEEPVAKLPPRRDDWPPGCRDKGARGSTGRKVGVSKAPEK

B1: endogenous Drosha (enzyme)
chain: MMQGNTCHRMSFHPGRGCPRGRGGHGARPSAPSFRPQNLRLLHPQQPPVQYQYEPPSAPSTTFSNSPAPNFLPPRPDFVPFPPPMPPSAQGPLPPCPIRPPFPNHQMRHPFPVPPCFPPMPPPMPCPNNPPVPGAPPGQGTFPFMMPPPSMPHPPPPPVMPQQVNYQYPPGYSHHNFPPPSFNSFQNNPSSFLPSANNSSSPHFRHLPPYPLPKAPSERRSPERLKHYDDHRHRDHSHGRGERHRSLDRRERGRSPDRRRQDSRYRSDYDRGRTPSRHRSYERSRERERERHRHRDNRRSPSLERSYKKEYKRSGRSYGLSVVPEPAGCTPELPGEIIKNTDSWAPPLEIVNHRSPSREKKRARWEEEKDRWSDNQSSGKDKNYTSIKEKEPEETMPDKNEEEEEELLKPVWIRCTHSENYYSSDPMDQVGDSTVVGTSRLRDLYDKFEEELGSRQEKAKAARPPWEPPKTKLDEDLESSSESECESDEDSTCSSSSDSEVFDVIAEIKRKKAHPDRLHDELWYNDPGQMNDGPLCKCSAKARRTGIRHSIYPGEEAIKPCRPMTNNAGRLFHYRITVSPPTNFLTDRPTVIEYDDHEYIFEGFSMFAHAPLTNIPLCKVIRFNIDYTIHFIEEMMPENFCVKGLELFSLFLFRDILELYDWNLKGPLFEDSPPCCPRFHFMPRFVRFLPDGGKEVLSMHQILLYLLRCSKALVPEEEIANMLQWEELEWQKYAEECKGMIVTNPGTKPSSVRIDQLDREQFNPDVITFPIIVHFGIRPAQLSYAGDPQYQKLWKSYVKLRHLLANSPKVKQTDKQKLAQREEALQKIRQKNTMRREVTVELSSQGFWKTGIRSDVCQHAMMLPVLTHHIRYHQCLMHLDKLIGYTFQDRCLLQLAMTHPSHHLNFGMNPDHARNSLSNCGIRQPKYGDRKVHHMHMRKKGINTLINIMSRLGQDDPTPSRINHNERLEFLGDAVVEFLTSVHLYYLFPSLEEGGLATYRTAIVQNQHLAMLAKKLELDRFMLYAHGPDLCRESDLRHAMANCFEALIGAVYLEGSLEEAKQLFGRLLFNDPDLREVWLNYPLHPLQLQEPNTDRQLIETSPVLQKLTEFEEAIGVIFTHVRLLARAFTLRTVGFNHLTLGHNQRMEFLGDSIMQLVATEYLFIHFPDHHEGHLTLLRSSLVNNRTQAKVAEELGMQEYAITNDKTKRPVALRTKTLADLLESFIAALYIDKDLEYVHTFMNVCFFPRLKEFILNQDWNDPKSQLQQCCLTLRTEGKEPDIPLYKTLQTVGPSHARTYTVAVYFKGERIGCGKGPSIQQAEMGAAMDALEKYNFPQMAHQKRFIERKYRQELKEMRWEREHQEREPDETEDIKK
Q: With B1 as the binder, how does the reduction of co-precipitated Drosha after RNase A pre-treatment of the extract read?
A: The reduction of co-precipitated Drosha after RNase A pre-treatment of the extract was 50%.

Source: article PMC2995059
